Legend:
Assay in all cases: cell-based or functional assay
[1] = target: HIV-1 Env pseudovirus 1056_10_TA11_1826 (HIV-1)
[2] = target: HIV-1 Env pseudovirus 246F C1G (HIV-1)
[3] = target: HIV-1 Env pseudovirus 6240_08_TA5_4622 (HIV-1)
[4] = target: HIV-1 Env pseudovirus Ce0393_C3 (HIV-1)
[5] = target: HIV-1 Env pseudovirus Ce1086_B2 (HIV-1)
[6] = target: HIV-1 Env pseudovirus Du172.17 (HIV-1)
[7] = target: HIV-1 Env pseudovirus HIV-0013095-2.11 (HIV-1)
[8] = target: HIV-1 Env pseudovirus MS208.A1 (HIV-1)
[9] = target: HIV-1 Env pseudovirus Q259.d2.17 (HIV-1)
[10] = target: HIV-1 Env pseudovirus Q461.e2 (HIV-1)
[11] = target: HIV-1 Env pseudovirus REJO4541.67 (HIV-1)
[12] = target: HIV-1 Env pseudovirus ZM135M.PL10a (HIV-1)
[13] = target: HIV-1 Env pseudovirus ZM53M.PB12 (HIV-1)
[14] = target: Env of HIV-1 pseudovirus 1006_11_C3_1601 (HIV-1)
[15] = target: Env of HIV-1 pseudovirus 249M B10 (HIV-1)
[16] = target: Env of HIV-1 pseudovirus 62357_14_D3_4589 (HIV-1)
[17] = target: Env of HIV-1 pseudovirus CAP210.2.00.E8 (HIV-1)
[18] = target: Env of HIV-1 pseudovirus CNE17 (HIV-1)
[19] = target: Env of HIV-1 pseudovirus CNE19 (HIV-1)
[20] = target: Env of HIV-1 pseudovirus CNE58 (HIV-1)
[21] = target: Env of HIV-1 pseudovirus Ce1172_H1 (HIV-1)
[22] = target: Env of HIV-1 pseudovirus Ce2010_F5 (HIV-1)
[23] = target: Env of HIV-1 pseudovirus HIV-16055-2.3 (HIV-1)
[24] = target: Env of HIV-1 pseudovirus SC422661.8 (HIV-1)
[25] = target: Env of HIV-1 pseudovirus T250-4 (HIV-1)
[26] = target: Env of HIV-1 pseudovirus THRO4156.18 (HIV-1)
[27] = target: Env of HIV-1 pseudovirus ZM197M.PB7 (HIV-1)
[28] = target: HIV-1 Env pseudovirus 231965.c01 (HIV-1)
[29] = target: HIV-1 Env pseudovirus 3103.v3.c10 (HIV-1)
[30] = target: HIV-1 Env pseudovirus R3265.c06 (HIV-1)
[31] = target: HIV-1 Env pseudovirus T278-50 (HIV-1)
[32] = target: HIV-1 Env pseudovirus X2088_c9 (HIV-1)

N49P11 (antibody)
IC50 [1]: 4.77 µg/mL
IC80 [1]: 14.2 µg/mL
MPI [1]: 100
IC50 [2]: 8.48 µg/mL
IC80 [2]: 20.9 µg/mL
MPI [2]: 100
IC50 [3]: 0.72 µg/mL
IC80 [3]: 3 µg/mL
MPI [3]: 100
IC50 [4]: 1.51 µg/mL
IC80 [4]: 9.71 µg/mL
MPI [4]: 100
IC50 [5]: 2.19 µg/mL
IC80 [5]: 11.7 µg/mL
MPI [5]: 100
IC50 [6]: 5.65 µg/mL
IC80 [6]: 17.9 µg/mL
MPI [6]: 100
IC50 [7]: 5.85 µg/mL
IC80 [7]: 17.8 µg/mL
MPI [7]: 100
IC50 [8]: 0.259 µg/mL
IC80 [8]: 1.94 µg/mL
MPI [8]: 100
IC50 [9]: 8.42 µg/mL
IC80 [9]: 21.4 µg/mL
MPI [9]: 100
IC50 [10]: 0.363 µg/mL
IC80 [10]: 2.15 µg/mL
MPI [10]: 100
IC50 [11]: 10.8 µg/mL
IC80 [11]: 27.1 µg/mL
MPI [11]: 100
IC50 [12]: 3.97 µg/mL
IC80 [12]: 16.6 µg/mL
MPI [12]: 100
IC50 [13]: 1.05 µg/mL
IC80 [13]: 6.53 µg/mL
MPI [13]: 100

N49P7.2 (antibody)
IC50 [1]: 0.114 µg/mL
IC80 [1]: 0.771 µg/mL
MPI [1]: 100
IC50 [2]: 0.049 µg/mL
IC80 [2]: 0.192 µg/mL
MPI [2]: 100
IC50 [3]: 0.812 µg/mL
IC80 [3]: 2.87 µg/mL
MPI [3]: 100
IC50 [4]: 0.137 µg/mL
IC80 [4]: 0.368 µg/mL
MPI [4]: 100
IC50 [5]: 0.166 µg/mL
IC80 [5]: 1 µg/mL
MPI [5]: 100
IC50 [6]: 0.29 µg/mL
IC80 [6]: 1.08 µg/mL
MPI [6]: 100
IC50 [7]: 0.183 µg/mL
IC80 [7]: 0.931 µg/mL
MPI [7]: 97
IC50 [8]: 0.186 µg/mL
IC80 [8]: 0.966 µg/mL
MPI [8]: 100
IC50 [9]: 38.5 µg/mL
IC80 [9]: > 50 µg/mL
MPI [9]: 54
IC50 [10]: 0.472 µg/mL
IC80 [10]: 2.24 µg/mL
MPI [10]: 100
IC50 [11]: 0.018 µg/mL
IC80 [11]: 0.08 µg/mL
MPI [11]: 100
IC50 [12]: 0.596 µg/mL
IC80 [12]: 2.8 µg/mL
MPI [12]: 99
IC50 [13]: 0.477 µg/mL
IC80 [13]: 1.73 µg/mL
MPI [13]: 100

10-1074 (antibody)
IC50 [14]: 0.003 µg/mL
IC80 [14]: 0.013 µg/mL
IC50 [15]: > 50 µg/mL
IC80 [15]: > 50 µg/mL
IC50 [16]: > 50 µg/mL
IC80 [16]: > 50 µg/mL
IC50 [17]: > 50 µg/mL
IC80 [17]: > 50 µg/mL
IC50 [18]: 2.69 µg/mL
IC80 [18]: 13.3 µg/mL
IC50 [19]: 50 µg/mL
IC80 [19]: > 50 µg/mL
IC50 [20]: 0.267 µg/mL
IC80 [20]: 0.968 µg/mL
IC50 [21]: 0.047 µg/mL
IC80 [21]: 0.166 µg/mL
IC50 [22]: > 50 µg/mL
IC80 [22]: > 50 µg/mL
IC50 [23]: > 50 µg/mL
IC80 [23]: > 50 µg/mL
IC50 [24]: 0.091 µg/mL
IC80 [24]: 0.418 µg/mL
IC50 [25]: < 0.001 µg/mL
IC80 [25]: 0.005 µg/mL
IC50 [26]: > 50 µg/mL
IC80 [26]: > 50 µg/mL
IC50 [27]: > 50 µg/mL
IC80 [27]: > 50 µg/mL

VRC01 (antibody)
IC50 (Titer in TZM.bl cells) [1]: 0.92 µg/mL
IC80 (Titer in TZM.bl cells) [1]: 3.28 µg/mL
IC50 (Titer in TZM.bl cells) [28]: 0.34 µg/mL
IC80 (Titer in TZM.bl cells) [28]: 1.2 µg/mL
IC50 (Titer in TZM.bl cells) [2]: > 10 µg/mL
IC80 (Titer in TZM.bl cells) [2]: > 10 µg/mL
IC50 (Titer in TZM.bl cells) [29]: 0.93 µg/mL
IC80 (Titer in TZM.bl cells) [29]: 2.49 µg/mL
IC50 (Titer in TZM.bl cells) [3]: 0.61 µg/mL
IC80 (Titer in TZM.bl cells) [3]: 1.82 µg/mL
IC50 (Titer in TZM.bl cells) [4]: 0.62 µg/mL
IC80 (Titer in TZM.bl cells) [4]: 2.37 µg/mL
IC50 (Titer in TZM.bl cells) [5]: 0.42 µg/mL
IC80 (Titer in TZM.bl cells) [5]: 1.44 µg/mL
IC50 (Titer in TZM.bl cells) [6]: > 50 µg/mL
IC80 (Titer in TZM.bl cells) [6]: > 50 µg/mL
IC50 (Titer in TZM.bl cells) [7]: 0.11 µg/mL
IC80 (Titer in TZM.bl cells) [7]: 0.33 µg/mL
IC50 (Titer in TZM.bl cells) [8]: 0.1 µg/mL
IC80 (Titer in TZM.bl cells) [8]: 0.46 µg/mL
IC50 (Titer in TZM.bl cells) [9]: 0.17 µg/mL
IC80 (Titer in TZM.bl cells) [9]: 0.54 µg/mL
IC50 (Titer in TZM.bl cells) [10]: 0.49 µg/mL
IC80 (Titer in TZM.bl cells) [10]: 1.6 µg/mL
IC50 (Titer in TZM.bl cells) [30]: 0.45 µg/mL
IC80 (Titer in TZM.bl cells) [30]: 1.88 µg/mL
IC50 (Titer in TZM.bl cells) [11]: 0.06 µg/mL
IC80 (Titer in TZM.bl cells) [11]: 0.25 µg/mL
IC50 (Titer in TZM.bl cells) [31]: > 50 µg/mL
IC80 (Titer in TZM.bl cells) [31]: > 50 µg/mL
IC50 (Titer in TZM.bl cells) [32]: > 50 µg/mL
IC80 (Titer in TZM.bl cells) [32]: > 50 µg/mL
IC50 (Titer in TZM.bl cells) [12]: 0.35 µg/mL
IC80 (Titer in TZM.bl cells) [12]: 2.7 µg/mL
IC50 (Titer in TZM.bl cells) [13]: 1.3 µg/mL
IC80 (Titer in TZM.bl cells) [13]: 4 µg/mL

PG16 (antibody)
IC50 [14]: > 50 µg/mL
IC80 [14]: > 50 µg/mL
IC50 [15]: 0.026 µg/mL
IC80 [15]: 1.25 µg/mL
IC50 [16]: > 50 µg/mL
IC80 [16]: > 50 µg/mL
IC50 [17]: 0.01 µg/mL
IC80 [17]: 0.042 µg/mL
IC50 [18]: 0.029 µg/mL
IC80 [18]: 0.132 µg/mL
IC50 [19]: 0.024 µg/mL
IC80 [19]: 3.07 µg/mL
IC50 [20]: 0.044 µg/mL
IC80 [20]: 0.25 µg/mL
IC50 [21]: 0.007 µg/mL
IC80 [21]: 0.037 µg/mL
IC50 [22]: > 50 µg/mL
IC80 [22]: > 50 µg/mL
IC50 [23]: 0.17 µg/mL
IC80 [23]: > 0.25 µg/mL
IC50 [24]: 0.858 µg/mL
IC80 [24]: > 50 µg/mL
IC50 [25]: 0.002 µg/mL
IC80 [25]: 0.005 µg/mL
IC50 [26]: 6.83 µg/mL
IC80 [26]: > 50 µg/mL
IC50 [27]: 1.5 µg/mL
IC80 [27]: 22.8 µg/mL
